Test [1] concerns the target T1, synthetic Aβ protofibrils (Aβ1-42-derived protofibrils) (UniProt P05067 672-713). Briefly: Octet BLI (Protein G sensor); PF 0.9167 nM. On the technique in general: BLI is a label-free optical method that tracks binding on a fibre tip over time.
Test [2] addresses T1, synthetic Aβ protofibrils …. Briefly: Octet BLI (Protein G sensor); PF 3.67 nM.
For test [3] the target is unchanged. Briefly: Octet BLI (Protein G sensor); PF 14.7 nM.
Test [4] has as its target T2, monomeric Aβ (UniProt P05067 672-713). Briefly: SPR. Background: In SPR one partner is held on a chip, and binding of the other changes the refractive index at the surface.
For test [5], the target named is T2, monomeric Aβ. Briefly: BIAcore SPR.
Test [6] concerns the target T2, monomeric Aβ. Briefly: SPR. The source holds these as a separate data set.
The target of test [7] is T2, monomeric Aβ. Briefly: BIAcore SPR. The source holds these as a separate data set.
Test [8] deals with T1, synthetic Aβ protofibrils …. Briefly: Octet BLI (Protein G sensor); PF 14.7 nM; LB.
Test [9] has as its target T2, monomeric Aβ. Briefly: SPR. This is another data set of the same source.
Test [10] addresses T1, synthetic Aβ protofibrils …. Briefly: Octet BLI (Protein G sensor); PF 0.9167 nM; LB.
Test [11] has the same target. Briefly: Octet BLI (Protein G sensor); PF 3.67 nM; LB.
The target in test [12] is T2, monomeric Aβ. Briefly: BIAcore SPR. The source holds these as a separate data set.
For test [13], the target named is T2, monomeric Aβ. Briefly: SPR. The source holds these as a separate data set.

Positions count from the first letter of the chain named.

The term Kd denotes the constant that tells how readily two partners part at equilibrium. Lower therefore signals higher affinity. In general, koff refers to a measure of how fast the partners let go of each other. Lower therefore signals a long-lived complex.

T2 sequence (P05067 672-713): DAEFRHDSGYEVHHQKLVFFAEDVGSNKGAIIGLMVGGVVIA
T1 sequence (P05067 672-713): as above

B1: B90 (hybridoma-purified mAb) (antibody, V domains shown)
VH: QVQLVESGGGVVQPGRSLRLSCAASGFTFSSYGMHWVRQAPGKGLEWVAIIWYDGSKKYYADSVKGRFTISRDNSKNTLYLQMNSLRVEDTAVYYCARRGRVGATRDYYYYSMDVWGQGTTVTVSS
VL: AIQMTQSPSSLSASVGDRVTITCRASQGIRNDLGWFHQKPGKAPKLLIYAASSLQSGVPSRFSGSGSGTDFTLTISSLQPEDFATYYCLQDYVYPWTFGQGTKVEIK
Take B1: the Kd in [1], in test [2] and in test [3] was less than 1 pM in each case. Moreover, the koff in the test with monomeric Aβ [4] is 0.00722 s⁻¹.

B2: B28 (hybridoma-purified mAb) (antibody, V domains shown)
VH: QVQLVESGGGVVQPGRSVRLSCAATGFTFSSYGMHWVRQAPGKGLEWVAVIWFDGSNEYYADSVRGRFTISRDNSKNTLYLQMNSLRAEDTAVYYCARRGRVGVTRNYYYYNMDVWGQGTTVTVSS
VL: B1 VL with H37Q, A50P, G68D, V93N, Y94F, W96F, Q100P, E105D
Turning to B2, the Kd in [2] is less than 1 pM; in test [3], 21800 pM. For the same molecule, the koff with monomeric Aβ [5] was 9.41e-05 s⁻¹.

B3: B54 (hybridoma-purified mAb) (antibody, V domains shown)
VH: B1 VH with S31T, I50L, K65Q, N74S, A104V, D107N, S112G
VL: B1 VL with A25T, G28D, H37Q, L46F, A50P, S56G, T72I, V93N, Y94F, Q100E
For the molecule B3, the Kd in test [1], in test [2] and in test [3] was less than 1 pM in each case. For the same molecule, the koff with monomeric Aβ [6] is 0.00526 s⁻¹.

B4: B51 (hybridoma-purified mAb) (antibody, V domains shown)
VH: B1 VH with Y32H, I50V, K57N, Y59N, V88A, A104V, D107N, S112G
VL: B1 VL with H37Q, G41V, A50P, V93N
Consider B4, for which the Kd in test [1], in test [2] and in test [3] was less than 1 pM throughout. The koff in the test with monomeric Aβ [6] was 0.0144 s⁻¹.

B5: B60 (antibody, V domains shown)
VH: B1 VH with Y32H, I50V, K57N, Y59N, V88A, A104V, D107N, S112G
VL: B1 VL with H37Q, G41V, A50P, V93N
In the case of B5, the koff with monomeric Aβ [7] came out at 0.00356 s⁻¹.

B6: B24 (hybridoma-purified mAb) (antibody, V domains shown)
VH: EVQLLESGGGLVQPGGSLRLSCAASGFTFSSYAMTWVRQAPGEGLEWVSTISGSGIRTYYADSVKGRFTISRDNSKNTMYLQMNSLRAEDTAVYYCAKDGLTGDRRWYFDLWGRGTLVTVSS
VL: EIVMTQSPATLSLSPGERATLSCRASQSVSSSYFSWYQQKPGQAPRLLIYGASTRATGIPARFSGSGSGTDFTLTISSLQPEDFAVYYCQQDSNLPLTFGGGTKVEIK
As to B6, the Kd in test [8], in test [10] and in [11] was less than 1 pM throughout. Further, the koff with monomeric Aβ [9] turned out to be 0.0956 s⁻¹.

B7: B19 reprep (=B24) (antibody, V domains shown)
VH: B6 VH
VL: B6 VL
As for B7, in the test with monomeric Aβ [12], the koff was 6.58e-07 s⁻¹.

B8: B75 (hybridoma-purified mAb) (antibody, V domains shown)
VH: QVQLVESGGGVVQPGRSLRLSCAASGFTFSSYGMHWVRQAPGKGLEWVAVIWYDGSYKYYADSVKGRFTISRDNSKNTLYLQMNSLRVEDTAVYYCAREGRTYYDFLTGYFDFWGQGTLVTVSS
VL: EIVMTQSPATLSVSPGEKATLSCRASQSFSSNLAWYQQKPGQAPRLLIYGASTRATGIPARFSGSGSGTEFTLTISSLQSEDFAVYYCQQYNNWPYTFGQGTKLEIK
B8 gave a koff with monomeric Aβ [7] of 0.00238 s⁻¹.

B9: B73 (hybridoma-purified mAb) (antibody, V domains shown)
VH: QLQLQMSGPGLVKPSETLSLTCTVSGGSISSSSYYWGWIRQSPGKGLEWIGSIYYSGRTYYNPSLKSRVTISVDTSKNQFSLKLSSVTAADTAMYYCARRSSGRPYYWGQGTLVTVSS
VL: QAVVTQESALTTSPGGTVILTCRSSTGAVTTSNYANWVQEKPDHLFTGLIGETNNRAPGVPVRFSGSLIGDKAALTITGAQTEDDAMYFCALWYSTHWVFGGGTKLTVL
As for B9, the Kd in test [1], in test [2] and in test [3] was less than 1 pM each time. In the test with monomeric Aβ [13], this molecule yielded a koff of 0.0012 s⁻¹.

(Values after US20230107034A1 (published 2023).)
